Patent publication US20230054956A1 (VANDERBILT UNIVERSITY, published 2023)

T1: GII.4 Sydney 2012 virus-like particles (VLPs), based on strain AFV08795.1 (human norovirus GII.4 Sydney 2012, UniProt P54635 1-538, The particle is a multimeric assembly of VP1 with a little VP2 inside; one VP1 chain is given.)
T1 construct: VLP assembled from VP1 and VP2 in baculovirus/Sf9 cells; also called GII.4 VLPs
T1 chain: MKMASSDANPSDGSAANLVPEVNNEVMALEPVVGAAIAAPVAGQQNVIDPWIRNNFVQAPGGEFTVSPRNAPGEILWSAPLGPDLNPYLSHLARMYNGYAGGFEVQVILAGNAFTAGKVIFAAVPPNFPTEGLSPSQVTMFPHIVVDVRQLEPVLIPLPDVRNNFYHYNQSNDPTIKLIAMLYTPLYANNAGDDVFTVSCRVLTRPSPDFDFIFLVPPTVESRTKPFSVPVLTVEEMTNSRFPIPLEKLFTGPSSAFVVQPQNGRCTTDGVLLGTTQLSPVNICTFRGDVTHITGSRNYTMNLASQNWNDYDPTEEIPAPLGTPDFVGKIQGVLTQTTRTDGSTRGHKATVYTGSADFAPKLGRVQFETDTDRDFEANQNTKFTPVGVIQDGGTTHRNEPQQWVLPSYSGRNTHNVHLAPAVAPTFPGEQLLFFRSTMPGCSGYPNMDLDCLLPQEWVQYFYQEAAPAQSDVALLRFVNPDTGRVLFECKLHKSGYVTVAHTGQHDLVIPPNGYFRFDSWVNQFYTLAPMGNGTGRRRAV

B1: NORO-315B (antibody, V domains shown)
VH: QVQLVESGGGLVKPGGSLRLSCVASGFTFSDYYMTWFRQTPGRGLEWLSYISAIGGYTEYADSVKSRFIISRDNGKKSLYLQMNSLRAEDSGVYYCAREDCHGTSCYSGDWGQGTLVTVSS
VL: QSVLTQPPSVSGAPGQRVTISCTGSSSNIGAGYDVHWYQQLPGTAPKLLIYHNTNRPSGVPDRFSGSKSGTSAYLTITGLQAEDEADYYCQSYDRSLSKSRVFSGGTKLTVL
B2: NORO-313.1 (antibody, V domains shown)
VH: QVQLVESGGGLVKPGGSLRLSCAASGFTFSDFYMSWIRQAPGKGLEWVGYISSIAGATNYADSVKGRFTISRDSSKRSLYLQMNSLRVEDTAVYYCARMGRLELERRPHYYYPLDVWGQGTLVTVSS
VL: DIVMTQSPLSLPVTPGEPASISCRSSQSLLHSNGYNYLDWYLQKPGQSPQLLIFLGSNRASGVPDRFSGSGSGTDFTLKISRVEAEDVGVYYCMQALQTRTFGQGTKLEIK
B3: NORO-317 (antibody, V domains shown)
VH: QVQLVESGGGLVKPGGSLRLSCVASGFTFSDYYISWVRQAPGKGLEWVSYISAINSYTNYADSVRGRFTVSRDNAKKSVFLQMNSLRVDDTAVYYCARDVGGSVRYSSNSNKKSYNYFDPWGQGTLVTVSS
VL: SYELTQPPSVSVSPGQTATITCSGDVLSKEFAYWYQQKPGQAPVLVIYKDNERPSGIPERFSGSTSGTTVTLTISGVLAEDEAHYYCQSVDTRGTYKVFGGGTKLTVL
B4: NORO-273A (antibody, V domains shown)
VH: QVQLVQSGAEVKKPGASVKISCKASGYDFTSFPMHWVRLGPGQRLEWMGWISAANGNTKYSQKFQDRFTITRDTSASIVHMELSSLRSEDTAVYYCARGGYSSGLYRYSNYYYGMTVWGQGTLVTVSS
VL: DIVMTQTPLSLSVTPGQPASISCKSSESLLHNDRKTYLFWYLQKPGQPPQLLIFQVSNRFSGVPDRFSGSGSGTDFTLRISRVEAEDVGIYYCLQTTQLPLTFGGGTKVEIK
B5: NORO-310A (antibody, V domains shown)
VH: EVQLVESGGGLVRPGESLRLSCVASGFSVSDNYMSWVRQAPGKGLQWVSVIYSGGTTFYTDSVKGRFTISRDKSKNTLFLQMNSLRAEDTAVYFCTRDPSQYYDSRGHYYQTFTPSFDSWGQGTLVTVSS
VL: DIQMTQSPSVMSASVGDRVTITCRASQDISDYLAWFQQKPGKVPKRLIYAASSLQNGVPSRFSGSGSGTEFTLTISSLQPEDFATYYCLQHDTYPLTFGGGTKVEIK
B6: NORO-250B (antibody, V domains shown)
VH: QVQLVESGGGLVKPGGSLTLSCAASGFTFSDYYMNWIRQAPGKRLEWVSYISGIMSSTNYADSVKGRFTISRDTAKKSVYLQMNSLRAEDTAVYYCARATSQGATSYYFDSWGQGTLVTVSS
VL: QSVLTQPPSVSGAPGQRVTISCTGSSSNIGADYDVHWYQQLPGAAPRLLIYADINRPSGVPDRFSGSKSGTSASLAITGLQAEDEADYYCQSYDRSVSGSAVFGGGTKVTVL
B7: NORO-202A.1 (antibody, V domains shown)
VH: QVQLVQSGAEVKKPGASVKVSCKASEYTFTGYYLQWVRQAPGHGLEWMGWINPSGGTKYSQKFQGRVTMTRDTSITTVYMELSRLRSDDTAVYYCARDLLRNWGDHDAFDVWGQGTMVTVSS
VL: QSVLTQPPSASETPGQGVTISCSGSSSNIGSNFVCWYQQVPGTAPKLLIYKNNQRPSGVPDRFSGSKSGTSASLAISGLRSEDEADYYCSAWDDSLSGPVFGGGTKLTVL
B8: NORO-256A (antibody, V domains shown)
VH: QVQLVESGGGVVQAGRSLRLSCAASGFTFRSYGMHWVRQAPGKGLEWVAIISYDGGSKYYADSVKGRFTISRDNSKNTLYLQMNSLRVEDTALYYCAKDFLRVYSYGWHSFDIWGLGTLVTVSS
VL: QSVLTQPPSVSAAPGQRVTISCSGSSSNIGTYYVSWYQHLPGTAPKLLIYDNDKRPSGIPDRFSASKSGTSATLDIAGLQTGDEADYYCGTWDLSLTAGWVFGGGTKLTVL
B9: NORO-279A (antibody, V domains shown)
VH: QVQLVESGGGVVQPGRSLRLSCAASGFTFTKYGMHWVRQAPGKGLEWVAFIAYDGSVKYYGDSAKGRFAISRDNPKNTVYLQMNSLRAEDTAVYYCAKVEIHYYSNSLLGMDVWGQGTLVTVSS
VL: QSVLTQPPSASGTPGQRVTISCSGGNSNIGISYVYWYQHLPGTAPKLLISKNNLRPSGVPDRFSASKSGTSASLAISGLRSEDEAEYYCATLDINMTWVFGGGTKLTVL
B10: NORO-251A (antibody, V domains shown)
VH: QVQLVESGGGVVQPGRSLRLSCAASGFTFRSYGIHWVRQAPGKGLEWVALISYDGSSKYYADSVKGRFTISRDNSKNTLYLQMNSLRSEDTAVYYCAKVRLTSYSIGWFSFDYWGQGTLVTVSS
VL: QSVLTQPPSVSAAPGQKVTISCSGSSSNIANYYVSWYQQLPGRAPKLLIYDNNKRPSGIPDRISGSKSGTSATLGITGLQTGDEADYYCGTWDTSLSAWVFGGGTKLTVL
B11: NORO-296A (antibody, V domains shown)
VH: QVQLVESGGGLVKPGGSLRLSCAASGFTFSEYYMSWVRQAPGKALEWVSYITSSFSSTSYADSVKGRFVISRDNAKNSLYLQMNSLRVEDTAVYYCARYGAEYGSRSFYFLDWGQGTLVTVSS
VL: QSVLTQPPSVSGAPEQRVTISCTGSSSNIGAGYDVHWYQVLPGIAPKLLIYDNNKRPSGVPDRFSGSKSGTSASLAITGLQAEDEADYYCQSYDSRLSSNVVFGGGTKLTVL
B12: NORO-278 (antibody, V domains shown)
VH: QVQLVESGGGVVQPGRSLRLSCAASGFTFSSYGMHWVRQAPGKGLEWVAVISYDGSNKYYADSVKGRFTISRDNSKNTLYLQMNSLRAEDTAVYYCAKVTIIAAADLLDYWGQGTLVTVSS
VL: QSVLTQPPSVSGAPGQRVTISCTGSSSNIGAGYDVHWYQQLPGTAPKLLIYGNSNRPSGVPDRFSGSKSGTSASLAITGLQAEDEADYYCQSYDSSLSGPVVFGGGTKLTVL
B13: NORO-303 (antibody, V domains shown)
VH: QVQLVESGGGVVQPGRSLRLSCAASGFIFSSYAMHWVRQAPGKGLEWVAVMSYDGNNKYYADSVKGRFTISRDNSKNTLFLQMNSLRPEDTAVYYCARDCRVGWVFTYGMDVWGQGTLVTVSS
VL: QSALTQPPSASGSPGQSVTISCTGTSSDVGGYNYVSWYQQHPGKAPKLMMYEISKRPSGVPIRFSGSKSGNTASLTVSGLQAEDEADYYCSSYAGTYNCVVFGGGTKLTVL
B14: NORO-312A (antibody, V domains shown)
VH: QVQLVESGGALVKPGESLRLSCAASGFTFSDSYMSWIRQAPGKGLEWVAYISGIMSSTNYADSVKGRFTISRDNGKNSVYLQMNNLRAEDTAVYYCARDAQYCSGGRCYLVFDYWGQGTLVTVSS
VL: QSVLTQPPSVSGAPGQRVTISCTGSSSNIGAGYEVHWYQQLPGAAPKLIIYGNNNRPSGVPDRFSGSKSGTSASLAITGLQADDEADYYCQSYDNRLRVFGGGTKLTVL
B15: NORO-123 (antibody, V domains shown)
VH: QVQLVESGGGVVQPGRSLRLSCSTSGFTFSQYPMHWVRQAPGKGLEWVALISYDGMNKYYADSVRGRFTISRDNSENTQYLQMNSLRGDDTAVYYCARVTGDCTGNRCSYWAYYYYGLDVWGQGTLVTVSS
VL: QSALTQPPSASGSPGQSVTISCTGTSSDVGGYKYVSWYQQHPGKAPKLMIYEVTRRPSGVPDRFSGSKSGNTAFLTVSGLQAEDEADYYCGSYAGSTTSGYVFGTGTKVIVL
B16: NORO-263 (antibody, V domains shown)
VH: QVQLVESGGGLVKPGGSLRLSCAASGFTLSDYYMSWIRQAPGKGLEWVAYISSSHTSTYYRDSVKGRFTISRDSAKKSLYLQMNSLRVEDTAIYYCARDWVGGRSAYSDHWGQGTLVTVSS
VL: SYELTQPPSVSVSPGQTARITCSGDALPRRPAFWYQQKSGQAPVLVMYDDSKRPSGIPERFSGSSSGTVATLTISGAQVEDEADYHCYSTDSSGKERVFGGGTKLTVL
B17: NORO-327A (antibody, V domains shown)
VH: QVQLEVSGGGLVKPGGSLRLSCAASGFTFTDYYMSWIRQAPGKGLEWVAYISGIMSSTKYADSVKGRFTISRDNGKNSVYLQMNSLTAEDTAVYYCARERVEPPSAVTDFWGQGTLVTVSS
VL: QSVLTQSPSVSGAPGQRVTISCTGTSSNIGAGYDVHWYQQFPGTAPKLLISHNTNRPSGVPDRFSGSKSGTSASLAITGLQAEDEADYYCQSFDSSLRGSRVFGGGTKLTVL
notes: human hybridoma mAb; IgG, lambda
B18: NORO-246A (antibody, V domains shown)
VH: EVHLVESGGGLVKPGGSLRLSCAASGFTFSRYGMHWVRQAPGKGLEWVSSIVIRSDYKYYADSVKGRFTISRDNAKNSLYLQMNSLRADDTAVYYCARDLVEPGITPVGCDYWGRGTLVTVSS
VL: SNELTQAPSVSVSPGQTARITCFGDALANQYSYWYQRKPGQAPVLVIYKDSERPSGIPQRFSASNSGTTVTLTITGVQAEDEADYFCQSADSTGIYKVFGGGTKLTVL
notes: as for B17
B19: NORO-232A.2 (antibody, V domains shown)
VH: QVQLKQWGAGLLKSSETLSLTCAFNGNSFGAFYWSWIRLSPGKGLEWIGEVNYLGGADYNPSLKSRVTMSADTSKRQFSLSLKSVTAADTGVYFCARGRPHDYSPGSYSRPRRYYGLDVWGQGTTVTVSS
VL: EIVLTQSPATLSLSPGDSATLSCRASQAVSTTYLAWYQQTRGQAPRLLIHGTYTRAIGIPDKFSGTGSGTDFTLTISGLAPEDFAVYYCQQYSSSPYTFGQGTKIEIT
notes: human hybridoma mAb; IgA, kappa; in both panels

target: GII.4 Sydney 2012 virus-like particles (VLPs), based on strain AFV08795.1 (human norovirus GII.4 Sydney 2012, UniProt P54635 1-538, The particle is a multimeric assembly of VP1 with a little VP2 inside; one VP1 chain is given.); assay: indirect ELISA, VLP coated

Compared with B1, B2 is 7-fold lower in EC50: 0.7 µg/mL for the first, 0.1 µg/mL for the second.

First: B3
Second: B4
The EC50 of the first is 2-fold higher: 0.4 µg/mL for the first, 0.2 µg/mL for the second.

Compared with B5, B6 is 31-fold lower in EC50: 6.2 µg/mL for the first, 0.2 µg/mL for the second.

First: B7
Second: B8
The EC50 of the first is 2.2-fold lower: 0.4 µg/mL for the first, 0.9 µg/mL for the second.

First: B9
Second: B10
The EC50 of the first is 4.5-fold lower: 0.2 µg/mL for the first, 0.9 µg/mL for the second.

First: B11
Second: B12
The EC50 of the first is 6.7-fold lower: 0.6 µg/mL for the first, 4 µg/mL for the second.

B13 and B14 are within 1.5-fold of each other in EC50: 0.5 µg/mL for the first, 0.4 µg/mL for the second.

First: B15
Second: B16
The EC50 of the first is 9-fold higher: 5.4 µg/mL for the first, 0.6 µg/mL for the second.

Target: T1, GII.4 Sydney 2012 virus-like particles …
Assay: indirect ELISA, VLP coated

First: B17
Second: B18
The EC50 of the first is 3-fold higher: 0.6 µg/mL for the first, 0.2 µg/mL for the second.

B19 was tested, and the EC50 was 0.3 µg/mL.
